Laboratory results from article PMC6208366, “Structure and pro-toxic mechanism of the human Hsp90/PPIase/Tau complex” (Nature Communications, 2018).

Key:
[1] = biological target: T1, full-length human Tau (htau40, 441 residues, 2N4R) (human, UniProt P10636-8 1-441); experiment: NMR titration; 1H-15N spectra of 15N-labeled Tau (30-50 μM) with up to 5 equivalents of unlabeled partner, 5 °C, 50 mM sodium phosphate/10 mM NaCl/1 mM DTT pH 6.8; details: both partners purified
T1 construct: 15N-labelled for the NMR titrations; also called 2N4R Tau; source: E. coli BL21 (DE3), vector pNG2, purified (boiling, SP-Sepharose)
T1 sequence (P10636 other isoform, or with tags, fused parts or gaps): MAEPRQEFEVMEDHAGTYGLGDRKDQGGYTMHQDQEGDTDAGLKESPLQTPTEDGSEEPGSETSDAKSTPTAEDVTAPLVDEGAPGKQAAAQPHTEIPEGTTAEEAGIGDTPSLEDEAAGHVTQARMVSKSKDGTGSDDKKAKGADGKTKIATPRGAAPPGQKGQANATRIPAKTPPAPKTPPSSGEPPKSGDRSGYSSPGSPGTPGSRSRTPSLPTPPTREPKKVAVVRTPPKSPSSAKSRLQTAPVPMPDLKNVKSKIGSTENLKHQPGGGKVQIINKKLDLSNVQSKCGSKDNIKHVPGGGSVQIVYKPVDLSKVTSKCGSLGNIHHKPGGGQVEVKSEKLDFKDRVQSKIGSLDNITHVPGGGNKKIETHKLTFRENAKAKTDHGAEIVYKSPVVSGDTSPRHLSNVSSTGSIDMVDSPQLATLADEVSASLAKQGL

human full-length Hsp90β = biological target: T2, human full-length Hsp90β (human, UniProt P08238 1-724); experiment: paramagnetic NMR (pseudo-contact shifts); 80 μM Ile-labelled Hsp90 with 40 μM CLaNP-7-tagged FKBP51 mutant (Tm3+ against Lu3+), 25 °C, 50 mM sodium phosphate/300 mM NaCl pH 7.2 in D2O; details: both partners purified
T2 construct: Human Hsp90β (heat-shock protein 90 beta), full length, dimer; For NMR, Ile δ1 methyl-labelled in a deuterated background or unlabelled; nothing is said for Hsp90; also called heat-shock protein 90; Hsp90 dimer; source: E. coli BL21 (DE3) or Rosetta 2 (DE3), purified (Ni-NTA, SEC)
T2 sequence (P08238 whole entry): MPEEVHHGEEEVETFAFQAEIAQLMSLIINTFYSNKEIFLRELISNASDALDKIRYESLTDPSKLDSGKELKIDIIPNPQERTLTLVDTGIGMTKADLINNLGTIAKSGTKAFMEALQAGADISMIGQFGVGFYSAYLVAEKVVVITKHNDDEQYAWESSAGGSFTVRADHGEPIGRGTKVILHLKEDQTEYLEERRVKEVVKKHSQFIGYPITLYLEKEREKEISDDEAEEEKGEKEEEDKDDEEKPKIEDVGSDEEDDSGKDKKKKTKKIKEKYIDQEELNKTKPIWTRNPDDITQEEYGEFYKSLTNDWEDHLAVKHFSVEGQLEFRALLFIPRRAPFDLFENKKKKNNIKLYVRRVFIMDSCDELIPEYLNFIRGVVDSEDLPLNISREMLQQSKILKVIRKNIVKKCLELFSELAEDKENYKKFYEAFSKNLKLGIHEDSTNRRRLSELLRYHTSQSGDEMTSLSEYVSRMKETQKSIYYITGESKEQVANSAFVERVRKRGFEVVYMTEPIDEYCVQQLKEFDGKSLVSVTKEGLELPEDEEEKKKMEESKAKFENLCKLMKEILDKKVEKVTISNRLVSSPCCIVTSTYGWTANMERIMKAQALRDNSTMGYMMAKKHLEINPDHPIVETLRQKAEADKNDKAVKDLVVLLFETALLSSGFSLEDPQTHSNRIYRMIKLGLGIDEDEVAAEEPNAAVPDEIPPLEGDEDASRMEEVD

Binder	binding result [1]	binding result (human full-length Hsp90β)
full-length human FKBP51 (natural protein, UniProt Q13451 1-457, looked up, For NMR, Leu/Val or Ala/Met methyl-labelled or unlabelled; also called PPIase; source: E. coli BL21 (DE3) or Rosetta 2 (DE3), purified (Ni-NTA, HRV3C cut, SEC)) MTTDEGAKNNEESPTATVAEQGEDITSKKDRGVLKIVKRVGNGEETPMIGDKVYVHYKGKLSNGKKFDSSHDRNEPFVFSLGKGQVIKAWDIGVATMKKGEICHLLCKPEYAYGSAGSLPKIPSNATLFFEIELLDFKGEDLFEDGGIIRRTKRKGEGYSNPNEGATVEIHLEGRCGGRMFDCRDVAFTVGEGEDHDIPIGIDKALEKMQREEQCILYLGPRYGFGEAGKPKFGIEPNAELIYEVTLKSFEKAKESWEMDTKEKLEQAAIVKEKGTVYFKGGKYMQAVIQYGKIVSWLEMEYGLSEKESKASESFLLAAFLNLAMCYLKLREYTKAVECCDKALGLDSANEKGLYRRGEAQLLMNEFESAKGDFEKVLEVNPQNKAARLQISMCQKKAKEHNERDRRIYANMFKKFAEQDAKEEANKAMGKKTSEGVTNEKGTDSQAMEEEKPEGHV	binds	–
CLaNP-7-tagged FKBP51 C176S/C183S/C215S/C339S/C394S/E110C (natural protein, human, UniProt Q13451 1-457, looked up, CLaNP-7 lanthanide tag (Tm3+ or Lu3+) attached to C107 and C110 (E110C) in FK1, Human FKBP51, full length, with E110C and all cysteines other than C107 removed; also called FKBP51_(C176S/C183S/C215S/C339S/C394S/E110C)-CLaNP-7; source: E. coli, purified as the wild-type protein, tagged with CLaNP-7) MTTDEGAKNNEESPTATVAEQGEDITSKKDRGVLKIVKRVGNGEETPMIGDKVYVHYKGKLSNGKKFDSSHDRNEPFVFSLGKGQVIKAWDIGVATMKKGEICHLLCKPCYAYGSAGSLPKIPSNATLFFEIELLDFKGEDLFEDGGIIRRTKRKGEGYSNPNEGATVEIHLEGRSGGRMFDSRDVAFTVGEGEDHDIPIGIDKALEKMQREEQSILYLGPRYGFGEAGKPKFGIEPNAELIYEVTLKSFEKAKESWEMDTKEKLEQAAIVKEKGTVYFKGGKYMQAVIQYGKIVSWLEMEYGLSEKESKASESFLLAAFLNLAMCYLKLREYTKAVESCDKALGLDSANEKGLYRRGEAQLLMNEFESAKGDFEKVLEVNPQNKAARLQISMSQKKAKEHNERDRRIYANMFKKFAEQDAKEEANKAMGKKTSEGVTNEKGTDSQAMEEEKPEGHV	–	binds
